From article PMC8844075, “Structural basis of neuropeptide Y signaling through Y1 receptor” (Nature Communications, 2022) come the findings set out here.

Sequence of peptide YY (PYY) (P10082 29-64): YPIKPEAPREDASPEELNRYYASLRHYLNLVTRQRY
Sequence of PYY(3–36) (P10082 31-64): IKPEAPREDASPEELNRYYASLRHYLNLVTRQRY

In the assay the target is Y1R-eYFP (wild-type Y1R) (human) (UniProt P25929).
Sequence of Y1R-eYFP (wild-type Y1R) (human) (P25929 whole entry): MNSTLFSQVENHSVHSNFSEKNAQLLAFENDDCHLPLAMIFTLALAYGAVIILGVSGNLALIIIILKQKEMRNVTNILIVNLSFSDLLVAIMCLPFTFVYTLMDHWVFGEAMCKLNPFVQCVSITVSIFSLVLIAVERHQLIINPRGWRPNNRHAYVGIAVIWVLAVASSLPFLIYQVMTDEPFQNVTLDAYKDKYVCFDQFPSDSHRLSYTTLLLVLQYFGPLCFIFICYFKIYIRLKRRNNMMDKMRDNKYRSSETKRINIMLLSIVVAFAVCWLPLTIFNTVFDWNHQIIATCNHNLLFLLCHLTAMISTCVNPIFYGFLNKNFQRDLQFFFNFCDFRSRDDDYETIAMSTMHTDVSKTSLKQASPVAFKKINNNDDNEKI
“NPY(3–36) (from UniProt P01303 31-64) (peptide)” had a Ca2+ signalling assay in HEK293T cells, EC50 of 0.086 µM.

Regarding “PYY(3–36) (from UniProt P10082 31-64) (peptide)”, the Ca2+ signalling assay in HEK293T cells, EC50 is 0.077 µM.

As to “peptide YY (PYY) (from UniProt P10082 29-64)”, the Ca2+ signalling assay in HEK293T cells, EC50 was 0.0061 µM.
